Experimental data from patent publication US20040258659A1 (UNIVERSITE PIERRE ET MARIE CURIE PARIS VI, published 2004).
Substitutions are numbered along the chain they refer to.

B1: LSPVSSQSSA-RANTES (10-68) (P1) (ligand, human)
chain: LSPVSSQSSACCFAYIARPLPRAHIKEYFYTSGKCSNPAVVFVTRKNRQVCANPEKKWVREYINSLEMS
notes: range 33-91; Made by total chemical synthesis; The range 10-68 counts on mature RANTES, not on the precursor; also called mutant P1; variant P1
B2: FSPLSSQSSA-RANTES (10-68) (P2) (ligand, human)
chain: B1 chain with L1F, V4L
notes: range 33-91; Made by total chemical synthesis; The range 10-68 counts on mature RANTES, not on the precursor; also called mutant P2; RANTES P2

Columns and labels:
CCR5 [1] = target: T1, CCR5 (UniProt P51681 1-352, limits assumed); test: cell-based or functional assay
T1 sequence (P51681 whole entry): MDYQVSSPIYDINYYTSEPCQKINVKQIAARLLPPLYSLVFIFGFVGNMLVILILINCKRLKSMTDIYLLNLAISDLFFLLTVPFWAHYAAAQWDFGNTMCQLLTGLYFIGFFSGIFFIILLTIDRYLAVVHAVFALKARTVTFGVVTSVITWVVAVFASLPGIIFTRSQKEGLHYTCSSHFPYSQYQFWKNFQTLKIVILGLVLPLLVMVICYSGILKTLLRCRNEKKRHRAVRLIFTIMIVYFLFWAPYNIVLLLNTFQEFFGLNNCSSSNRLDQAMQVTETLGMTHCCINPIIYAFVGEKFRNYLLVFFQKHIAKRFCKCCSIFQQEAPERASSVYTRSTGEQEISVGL

CCR5 [2] = target: T1, CCR5; test: competitive radioligand binding on whole CHO-CCR5 cells at 4 C, 12 pM [125I]MIP-1α tracer
Procedure: Assays were carried out essentially as (11). CHO—CCR5 cells were seeded into 24 well plates (8×10⁴ cells/well). […] After incubation, cells were washed, lysed, and the lysaes counted using a Beckman Gamma 4000 scintillation counter. Determinations were performed in duplicate and IC₅₀ values derived from monophasic curves (competition binding; one-site) fitted using Prism software (GraphPad).

Binder | IC50, R5-tropic envelope-mediated cell fusion assay (CCR5 [1]) | IC50 (CCR5 [2])
B1 | 7 nM | 0.3 nM
B2 | 0.6 nM | 0.2 nM
